Laboratory results published in the supplement of paper PMC10126150.
± gives the standard deviation of the averaged measurements.

tested on: ATP; test: switch fluorescence ratio, 500 uM ATP over buffer (Cy3 cluster intensity, sum of 5 cycles each) (fold (ratio)); higher = stronger signal-on switching upon ATP binding; sequences stand for … in TCGTCGGCAGCGTCAGATGTGTATAAGAGACAGTTTTTTTTTTTTTTTTTTTTTTTTT…TC; details: aptamer strand: ATP DNA aptamer (quencher-CACCTGGGGGAGTATTGCGGAGGAAGG + anchor), 100 nM annealed; ATP concentration: 500 uM
Method in brief: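 Five buffer/ATP imaging cycles were run on Cy3-labelled switching-strand clusters on a modified Illumina MiSeq flow-cell, with NaOH stripping and re-annealing between cycles. In each cycle, clusters annealed to 100 nM quencher-labelled ATP aptamer were imaged in selection buffer, then after 15 min with 500 uM ATP at 22 °C. Per cluster, the fluorescence ratio is summed target-cycle over summed buffer-cycle Cy3 intensity, averaged per switch-domain sequence. Only clusters within 100-1000 RFU were kept.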
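Further: ATP exposure 15 min at 22 °C before imaging.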

| Sequence | switch fluorescence ratio |
| --- | --- |
| TAGGTAATTT | 0.968 ± 0.041 |
| TAGGTCAATC | 1.026 ± 0.0029 |
| TAGGTCCTTG | 0.9851 ± 0.0061 |
| TAGGTCGGGA | 0.976 ± 0.02 |
| TAGGTCTACG | 1.02 ± 0.019 |
| TAGGTCTTGC | 1.01 ± 0.033 |
| TAGGTGAGTT | 1.04 ± 0.047 |
| TAGGTGCCGT | 1 ± 0.076 |
| TAGGTGCTTC | 1.029 ± 0.0099 |
| TAGGTGGTCC | 0.9892 ± 0.0014 |
| TAGGTGGTGC | 0.986 ± 0.045 |
| TAGGTGTATG | 1.01 ± 0.033 |
| TAGGTGTGTT | 0.981 ± 0.019 |
| TAGGTGTTGG | 1.02 ± 0.007 |
| TAGGTGTTTG | 0.999 ± 0.018 |
| TAGGTTCGAG | 0.985 ± 0.011 |
| TAGGTTGAAT | 0.984 ± 0.019 |
| TAGGTTGCGA | 0.996 ± 0.021 |
| TAGGTTTGAA | 0.9922 ± 0.0018 |
| TAGGTTTGGT | 1.018 ± 0.0063 |
| TAGGTTTGTG | 0.993 ± 0.03 |
| TAGTACAGGC | 1.06 ± 0.015 |
| TAGTACTTTA | 1.046 ± 0.0071 |
| TAGTAGATTA | 0.982 ± 0.012 |
| TAGTAGTGAG | 0.985 ± 0.013 |

| Sequence | switch fluorescence ratio |
| --- | --- |
| TAGTATAGGA | 0.973 ± 0.056 |
| TAGTATGTGT | 0.9576 ± 0.0043 |
| TAGTCATGAG | 0.981 ± 0.017 |
| TAGTCATTGA | 1.012 ± 0.0021 |
| TAGTCGAGGG | 0.971 ± 0.024 |
| TAGTCGCGTA | 1.05 ± 0.035 |
| TAGTCTCTTG | 1 ± 0.015 |
| TAGTGAATTT | 1 ± 0.07 |
| TAGTGACAGC | 1.04 ± 0.014 |
| TAGTGAGGCG | 0.926 ± 0.0095 |
| TAGTGATGTT | 0.983 ± 0.018 |
| TAGTGATTGC | 0.988 ± 0.025 |
| TAGTGCAAGA | 1.0334 ± 0.00052 |
| TAGTGCCGGG | 1.06 ± 0.07 |
| TAGTGGACGG | 0.986 ± 0.034 |
| TAGTGGCTTA | 0.98 ± 0.042 |
| TAGTGGGCGA | 1.01 ± 0.067 |
| TAGTGGGGCA | 0.966 ± 0.033 |
| TAGTGGGGGA | 0.995 ± 0.015 |
| TAGTGGTCCA | 0.98 ± 0.03 |
| TAGTGTGGGC | 0.999 ± 0.017 |
| TAGTGTTTCT | 1.01 ± 0.018 |
| TAGTGTTTGT | 0.979 ± 0.017 |
| TAGTGTTTTT | 0.9775 ± 0.0093 |
| TAGTTAGGGG | 1.01 ± 0.058 |

| Sequence | switch fluorescence ratio |
| --- | --- |
| TAGTTATGTG | 0.9513 ± 0.0043 |
| TAGTTCAGGA | 1.05 ± 0.036 |
| TAGTTCGTTT | 0.998 ± 0.016 |
| TAGTTGAGTT | 0.982 ± 0.029 |
| TAGTTGATAA | 0.996 ± 0.018 |
| TAGTTGGAAG | 1.021 ± 0.0048 |
| TAGTTGGATG | 1 ± 0.038 |
| TAGTTGGGCT | 0.961 ± 0.032 |
| TAGTTGGGGA | 1.03 ± 0.033 |
| TAGTTGTTGT | 0.981 ± 0.049 |
| TAGTTTAATT | 0.998 ± 0.015 |
| TAGTTTCGGG | 0.997 ± 0.05 |
| TAGTTTTCTG | 0.982 ± 0.017 |
| TAGTTTTGTG | 1.01 ± 0.062 |
| TAGTTTTTGT | 1.01 ± 0.049 |
| TATAAAAACT | 1.01 ± 0.021 |
| TATAAAAGGG | 1.03 ± 0.078 |
| TATAAAATCT | 1.02 ± 0.082 |
| TATAAACCGC | 1.22 ± 0.11 |
| TATAAAGAGC | 1.08 ± 0.081 |
| TATAAAGGGA | 1.04 ± 0.029 |
| TATAAAGTGG | 1.03 ± 0.022 |
| TATAAATGGC | 1.01 ± 0.029 |
| TATAAATGTG | 0.978 ± 0.027 |
| TATAAATTGG | 1 ± 0.032 |

| Sequence | switch fluorescence ratio |
| --- | --- |
| TATAACCTGT | 1.015 ± 0.0089 |
| TATAACTATT | 0.999 ± 0.042 |
| TATAACTTAA | 1.03 ± 0.026 |
| TATAAGAAAA | 0.978 ± 0.013 |
| TATAAGACAA | 1.02 ± 0.022 |
| TATAAGCACG | 1.096 ± 0.0066 |
| TATAAGGCGC | 0.949 ± 0.032 |
| TATAAGGGGA | 1 ± 0.039 |
| TATAAGGTCC | 0.98 ± 0.019 |
| TATAAGTACA | 1.38 ± 0.04 |
| TATAAGTACG | 1.27 ± 0.016 |
| TATAAGTAGT | 0.956 ± 0.011 |
| TATAAGTTAT | 0.993 ± 0.029 |
| TATAAGTTTG | 0.999 ± 0.015 |
| TATAATAGCT | 1.02 ± 0.023 |
| TATAATATCG | 0.961 ± 0.015 |
| TATAATATTT | 1 ± 0.021 |
| TATAATCGGG | 0.989 ± 0.015 |
| TATAATTGGG | 0.9921 ± 0.0015 |
| TATAATTTTT | 1.03 ± 0.074 |
| TATACAACGA | 1.03 ± 0.021 |
| TATACAATTG | 1.01 ± 0.017 |
| TATACACATT | 1.02 ± 0.035 |
| TATACAGAGG | 0.983 ± 0.032 |
| TATACGAATT | 1.02 ± 0.074 |
